Laboratory results: paper PMC12022045 (Nature Communications, 2025)

Key:
[1] = target: T1, TAFH (human, UniProt O00268 582-678); experiment: NMR titration
T1 sequence (looked up): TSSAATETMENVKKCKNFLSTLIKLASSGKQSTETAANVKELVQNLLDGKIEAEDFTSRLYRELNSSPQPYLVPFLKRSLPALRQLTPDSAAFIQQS

[2] = target: T2, MED15-ABD3 (human, UniProt Q96RN5-2 453-561); experiment: NMR titration
T2 sequence (looked up): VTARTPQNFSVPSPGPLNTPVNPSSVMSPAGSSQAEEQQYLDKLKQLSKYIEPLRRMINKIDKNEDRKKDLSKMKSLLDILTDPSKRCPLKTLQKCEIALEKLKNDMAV

[3] = target: T2, MED15-ABD3; experiment: SPR

B1: FLTWL pentapeptide (peptide)
peptide: FLTWL
[1]
  binding result: binds
[2]
  binding result: binds

B2: YAP-TAD (domain or fragment, human, UniProt P46937 450-504, looked up)
chain: GTNVDLGTLEGDGMNIEGEELMPSLQEALSSDILNDMESVLAATKLDKESFLTWL
[3]
  Kd: 160 ± 54.3 nM

B3: α-helix-based peptide SDILNDMESVLAATK (peptide)
peptide: SDILNDMESVLAATK
[1]
  binding result: binds
